For this test, the target named is alanine or glycine:cation symporter (AgcS) from Methanococcus maripaludis (Methanococcus maripaludis, UniProt Q6LX42). The test can be described thus: crystal structure.
Sequence of alanine or glycine:cation symporter (AgcS) from Methanococcus maripaludis (Q6LX42 whole entry): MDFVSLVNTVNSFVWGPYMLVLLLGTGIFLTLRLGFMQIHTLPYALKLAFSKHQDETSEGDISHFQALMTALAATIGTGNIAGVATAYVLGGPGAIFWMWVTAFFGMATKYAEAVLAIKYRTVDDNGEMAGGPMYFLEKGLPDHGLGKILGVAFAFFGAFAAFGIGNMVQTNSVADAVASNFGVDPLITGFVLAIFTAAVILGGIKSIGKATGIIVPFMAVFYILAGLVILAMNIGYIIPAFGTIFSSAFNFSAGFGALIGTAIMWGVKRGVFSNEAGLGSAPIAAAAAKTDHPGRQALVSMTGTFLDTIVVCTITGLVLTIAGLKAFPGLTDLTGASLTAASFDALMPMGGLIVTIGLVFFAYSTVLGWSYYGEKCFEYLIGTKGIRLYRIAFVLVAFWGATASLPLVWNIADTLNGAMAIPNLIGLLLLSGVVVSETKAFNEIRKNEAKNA

B1: 7B4 Fab fragment (Fab, V domains shown)
VH: EVKLEESGGGLVQPGGSMKLSCAASGFTSSDFAMDWVRQSPEAGLEWVAEIAASERHYAESVKGRFTISRDDSKSSVYLQMNSLRAEDSGLYYCTRTAGACGQWGTGTTVTVSS
VL: DIAMTQSPASLSASVGETVTITCRTSENIASALAWYQQKQGKSPQLLVMNAKTLAAGVPSRFSGSGSGTAFSLKINSLQPEDFGSYSCQHAAGWLLTFGGGTKLEIK
B1: the binding result is “binds”.

Values taken from doi:10.1101/293811 (bioRxiv, 2018).
